Test results reported in the DeepSol protein solubility set.

Assay: soluble on expression in E. coli; label from the status in PepcDB or PDB records

Row | Sequence | soluble on expression in E. coli
1 | MVKSVLCFGDSLTWGSNAETGGRHSHDDLWPSVLQKALGSDVHVIHEGLGGRTTAYDDHTGDCDRNGARLLPTLLHSHAPLDMVIIMLGTNDMKPAIHGSAIVAMKGVERLVKLTRNHVWQVSDWEAPDVLIVAPPQLCETANPFMGAIFRDAIDESAMLASVYRDLADELDCGFFDAGSVARTTPVDGVHLDAENTRAIGRGLEPVVRMMLGL | soluble
2 | MGSDKIHHHHHHAQVKTYKYRVNFRDKAETTYALDKPSAYLSERALERRMKQGLPVDSTDIPVCRSYIDMLVGKGAQLVSKSKWNNTVVVQVSDTSVIDKVAALPFVTAVRKVWTAPDSIPARNANRKKEVTNRVTKSNNYYGDAWRQIAVHHGDSLHAAGFRGKGMQIAVIDAGFYNADEISVFKGMDLLGTRDFVNSHSDIYAENYHGMKVLSCMAANKPNVLVGTAPEASYWLLRSEDDDTEQPVEEDYWAEALEFADSVGVDVVNTSLGYYEFDDTTMNYRYRDLDGHYSLMSHSASLAADKGLVLVCSAGNSGRGTWKKITPPGDAENVITVGAADRNLVNADFSSVGNTTDGRVKPDVMAVGVASAVAGNDGTVSHANGTSFASPTLCGLVACFWQACPWLTAKQVVEAVRNAGDRKEYPDNIYGYGVPDIWKACQIELEKKK | not soluble
3 | MLRFDHLVHAVHGTPEEAAKQMQELGFHTVLGGEHTNWGTWNSLSYFDLSYIEFLAVQYEEKAKEAENPLVQETVVKLQNGEGMLQIAIRTDAIEELAVNFNKYGLHTIGPFEGKRMRKDGRLLEWKMLFVKQEENGPKLPFFIQWNETDEERRNDLRNSGTITEHKNKVQQIETIHYAVKNVRETVRKWKEVMELSTSSVVKIEKWNAECQSVVFGDIHVQFCEPIGEGLVLEHLNKNGENPFAVEFKGGNKREHEVLGSLYIY | not soluble
4 | GPGSMVLVLVVGDTWVPQRASGVPEVFCKMFSPGRIHKLLITGGVGSKEMYDYLRTIAPEVHCVTSSVDRQWADHMPESVVLTVEGLKLGLIHGHQVPVGDKDSLAAVQRELDVDVLVSGSTHQSKYFEFDSHLFVNPGSLSGADTEYDVNVVPSFMLLDIQDKSVVTFIYQFHPEDETGGGGTATEDLAAAGMVPGLRIKKKEWAKE | not soluble
5 | AIAPLGEEKNGKCDGSIYVNNPHLDSMTDDILYHFNLGTSTHDLPKMFGDVKFVCVGGSPWRMKSFTEYIAKELGLVDPNAEYPNICAGTDRYAMYKVGPVLSVSHGMGIPSISIMLHELIKLLYHARCTDVTVVRIGTSGGIGLKPGTVVVTKQSVDSLFQPHLEQTILGKPVVRSTELDKELAEELLQCGKELGEFEIIIGNTMCTLDFYEGSNVFEDKCTRIAAYSFKIHVL | soluble
6 | SAMAQKEEGHEAAAAEAKKETDLAHVDQVETFVGKEKYYVVKGTDKKGTALYVWVPADKKAKILSKEAKEGISEDKAAKIIKDEGLVSKQKEVHLAREGNVLLWEVTYLDKEGQYSLSYVDFTTGKILKNITP | soluble
7 | GPGSMTEKPAKEPPLPRDLKAQFDVLAGTRWDGVGDDADAAEQLSQLRQEWKALGNACYGKGYFLAAIRCYSRLLEVPGGDTAQIRSNRSAAYLQSPMLVGPSLALKDAEKAVELDPQWFKAHLRVGDAHRKRGHFAEAEAAYREALARQPECATALAGLRALQVESAGLPAAAATFPRGHAERTPYHNAPPSPRSLSSRTTAHAVAVAQAKEEELQLTQEQLVHKWKADISTREGRTGCRPRQASLSQADRQHGAAIKQALLARFRDKLESNGEFSAILRNRCEEAMLRGEGINYRDADKLRNTYSHATNGIGLGISSDAYKEYTGRVDHRTW | soluble
8 | MGSDKIHHHHHHMSLIFDIKRYAINDGPGIRITLFMKGCPLSCIWCHNPEGIRNGKDKLYTAKKCLGCGTCLKVCPNGALTLTPEGIITDKQKCVLCGRCAEECPAMAIEISGTEYTAEYLMHEIEKEIPFMDQSGGGVTFCGGEPLLHPEFLIDILKRCGQQGIHRAVDTTLLARKETVDEVMRNCELLLIDLKSMDSTVHQTFCDVPNELILKNIRRVAEADFPYYIRIPLIEGVNADEKNIKLSAEFLASLPRHPEIINLLPYHDIGKGKHAKLGSIYNPKGYKMQTPSEEVQQQCIQILTDYGLKATIGG | not soluble
9 | MSLETGVTNDAIIIGQSAAMSGPAGKLGQQMNLGAKLYFKSINAAGGIYGRKIELKVLDDFYEPEAAERNTKTLINDTKVFALFGYVGTPTSLAALKVANPAGVPFFAPYSGAMALREPFARNVFHVRASYNDETAAIVQQIRTTGHKRVAVVYNDDSYGAAGLAGVKRALALPENKAVALAVEASVPRNSTTVKAALSKVLPSKADSVVVISTYQTTAALVKEALAEGFTGQFYNVSFVGTKELADALGSAGGGVVVSQVMPFPHSMSSALTRDYEKLLKADGVTSFDYGSMEGYIAARIFVEGLKRAGRDLTREKLITALETMGSTDLGGFAVSFSPTNHVASKFVEMTVINSHGQVIREGHHHHHH | soluble
10 | MGSDKIHHHHHHMRPIKNAKKIDYNLIKVFDTVITEGNATRAARKLDVTPAAISQALLRLQNLYGEELFIRTRKGLVPSSKGKSLHQVFRQAIESIESTLCDKTDAQESNELIVLGGDITENYYFPALLDTVLMNRYIIKHYAIKKTGEYSPASMLTHGYADVIMGILEIKNEMIESYLIDNLSDFVCVCGEKSPLVGLEKMSLYNFYAARHAVYHSDMFSSFTADSIDLFKSSTPYAGRREIGYYSDSLFGVIDIVEKSDMVAILPGKIATYFRDVRRYNIKILRMPDEMIFRTLPVYAYLATNSTHYKNVKKLISTFQSTFLFSQEKQPDALVEGSTSLCDLSV | not soluble
11 | MSLSDGNITFAYSYPIKAFEKFLGYYDRENRIAFNPSISMRTDFSFCLAACRYRKNGKTDTVVLDGYADNKYYKKAKFALDKFRSEYSINGSFDFYIKRYRRYQKAKGLSESSAVAAAVSRALISNVFGDDAAKDDIFVSRYARLVSGSGTRAAHDGISMWLSYPGMDSRDCVAFKVGKSNENLNYGVFPKYSDVATDNAHSIAVNSVFYGTWVSEKFSNVKRLISDHFDINDLLKIGENDMLRLNSILMSGGLIIQTPDSLRILKEILKFKSKNEGFYFTADTGPSIAIFSFDRSLIDEFRENVNDEYIEGSYDFKGYNNEGHHHHHH | not soluble
12 | GPGSMSLKKKTFKQRIRKNDMKQRHQIGFGLRKRMGAARRIRNRYDSVDDGTRPMEMIVSEIAEGTAVPSQEAVLDPRSLTDLLLRPAESPVSNNSASASANVATTSCAVASKSNGCSSALWKRGSSKSSALLTSVPLASEKVLPSLPLAPDDPLALPDTRVFEEEERQQRLAREAAARQNENKNLYRHSGQPYLFWERVGLHPALLQALRDLHFTHPTPVQEEVLPNVLASGDEGLARQRSSEADKKSKKHKRAGGAADSAGHDVVVSAETGSGKTLVFALPILQDLLTTLDTERVSAVTPTSSAEAVHEKATGQASSDAAWRERS | soluble
13 | MRFSNDHPFNQMRLKLTTELLLDLGSLKPEHIITPRIATDEELSLIHSYDYIQAIRRASHGILNLQEAKKYGLDGDDTLQFRRMHQHSARIVGGALNLADAIMDKSVKNGCHLGGGLHHSLPGRANGFCIYNDVAITIAYLIKHYNQRVLCIDTDAHHGDGTQWSFYTEDQALIYSIHETGKFLFPGSGHYTERGNEQGFGYTVNIPLEPYTEDSSYLEVFKQTIEPIIASFKPDIIVSVHGVDVHYLDPLTHMSCTLNTLYQIPYIIKSLADTYTNGKVMMFGGGGYNIWKVVPRAWSHVFLALIEAPPPLEHHHHHH | soluble
14 | LLGNTIHVPCQPCRHGHGAPSRGLRGRPADRWPVARATPTLHVCPQNQGVGLDFVRKPEYGRLRWPAYPAGTNNDRLISMRDGGIVALPQLTDEQRAAALEKAAAARRARAELKDRLKRGGTNLTQVLKDAESDEVLGKMKVSALLEALPKVGKVKAQEIMTELEIAPTRRLRGLGDRQRKALLEKFGSA | soluble
15 | DIQMTQSPSSLSASVGDRVTITCKASQDIKSFLSWYQQKPEKAPKSLIYYATSLADGVPSRFSGSGSGTDYTLTISSLQPEDFATYYCLQHGESPYTFGGGTKVEIKRTVAAPSVFIFPPSDEQLKSGTASVVCLLNNFYPREAKVQWKVDNALQSGNSQESVTEQDSKDSTYSLSSTLTLSKADYEKHKVYACEVTHQGLSSPVTKSFNRGECT | soluble
